Assay: Effective diameter by dynamic light scattering in double distilled water
Format: physicochemical
Settings: DLS
Description: 3 successive runs of 1 min each were subsequently recorded and averaged. […] 10 successive automated runs at target residuals of 0.012 were then performed and results averaged (FIG. 14).

Poly(Mucic Acid-DiCys-PEG)-CPT conjugate
share of the total particle population in the predominant distribution: 60%
